From the supplement of paper PMC10567573

B1: ZNF207 (parent)
chain: FPSAGQAQAAVQGPVGTDFKPLNS

Variants of: B1
Assay: protein stability index of a GFP-peptide fusion (GPS, HEK-293T) (PSI 1-6); higher = more stable
Settings: c terminus: a fixed tail appended
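Note: lentivirally expressed fusions sorted by FACS into six bins by GFP to DsRed ratio, PSI derived from sequencing read proportions per bin multiplied by bin number.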

Protein stability index: each site, then its substitutions
A7: N 3.94 | P 3.51 | Q 3.5 | R 3.26 | S 3.87 | T 3.49 | V 3.36 | W 2.44 | Y 1.65
Q8: A 4.04 | C 3.23 | D 3.87 | E 4.04 | F 1.48 | G 3.77 | H 3.35 | I 2.76 | K 3.89 | L 2.11 | M 2.72 | N 3.57 | P 3.38 | R 3.47 | S 3.68 | T 3.47 | V 3.31 | W 1.89 | Y 1.71
A9: C 3.37 | D 4.02 | E 3.74 | F 2.02 | G 3.13 | H 3.31 | I 2.86 | K 3.52 | L 2.62 | M 3.06 | N 3.83 | P 3.53 | Q 4.06 | R 3.47 | S 3.1 | T 2.99 | V 2.93 | W 2.45 | Y 2.13
A10: C 2.75 | D 3.69 | E 3.8 | F 2.22 | G 3.72 | H 3.55 | I 3.22 | K 2.87 | L 3.18 | M 3.18 | N 3.13 | P 3.25 | Q 3.42 | R 3.05 | S 3.73 | T 3.41 | V 2.99 | W 2.24 | Y 2.95
V11: A 3.73 | C 3.1 | D 3.68 | E 3.84 | F 2.58 | G 3.72 | H 3.74 | I 3.25 | K 3.45 | L 3.07 | M 3.36 | N 3.32 | P 3.62 | Q 3.72 | R 4.12 | S 4.27 | T 3.58 | W 2.38 | Y 3
Q12: A 3.13 | C 3.51 | D 3.69 | E 3.18 | F 2.28 | G 3.37 | H 3.18 | I 2.54 | K 3.38 | L 2.67 | M 2.83 | N 3.41 | P 3.88 | R 3.1 | S 3.36 | T 3.61 | V 3.36 | Y 2.46
G13: A 3.26 | C 3.4 | D 3.74 | E 3.79 | F 2.9 | H 3.37 | I 3.22 | K 3.76 | L 3.69 | M 3.38 | N 3.58 | P 3.57 | Q 3.09 | R 3.5 | S 3.69 | T 3.52 | V 3.23 | W 2.53 | Y 3.12
P14: A 3.47 | C 3.04 | D 4.01 | E 3.92 | F 2.55 | G 3.54 | H 3.71 | I 2.98 | K 2.8 | L 3.04 | M 3.22 | N 3.68 | Q 3.62 | R 3.36 | S 3.34 | T 3.3 | V 3.32 | W 1.97 | Y 3.44
V15: A 3.62 | C 3.16 | D 3.49 | E 3.77 | F 2.73 | G 3.1 | H 3.29 | I 3.84 | K 3.58 | L 3.44 | M 3.01 | N 3.88 | P 3.63 | Q 3.62 | R 3.28 | S 3.84 | T 3.7 | W 1.75 | Y 2.93
G16: A 3.13 | C 3.37 | D 3.75 | E 3.94 | F 3.17 | H 3.52 | I 3.27
